Assay results published in patent publication US11278600B2, “Human alpha-galactosidase variants” (Codexis, Inc., priority 2014, dated 2022).
Substitutions are numbered along the chain they refer to.

B1: 91 (protein)
chain: LDNGLARTPTMGWLHWERFMCNLDCQEEPDSCISEKLFMEMAELMVSEGWKDAGYEYLCIDDCWMAPQRDSEGRLQADPQRFPHGIRQLANYVHSLGLKLGIYADVGNKTCAGFPGSFGYYDIDAQTFADWGVDLLKFDGCYCDSLENLADGYKHMSLALNRTGRSIVYSCEWPLYMWPFQKPNYTEIRQYCNHWRNFADIDDSWKSIKSILDWTSFNQERIVDVAGPGGWNDPDMLVIGNFGLSWNQQVTQMALWAIMAAPLFMSNDLRHISPQAKALLQDKDVIAINQDPLGKQGYQLRQGDNFEVWERPLSGLAWAVAMINRQEIGGPRSYTIAVASLGKGVACNPACFITQLLPVKRKLGFYEWTSRLRSHINPTGTVLLQLENTMQMSKDLLL
modifications: Synthetic Polypeptide sequence of Variant No. 91 of mature Human GLA
B2: 105 (protein)
chain: B1 chain with L96K, K394A
modifications: Synthetic Polypeptide sequence of Variant No. 105 of mature Human GLA
B3: 93 (protein)
chain: B1 chain with L96R, L397V
modifications: Synthetic Polypeptide sequence of Variant No. 93 of mature Human GLA
B4: 101 (protein)
chain: B1 chain with L96K, L316D
modifications: Synthetic Polypeptide sequence of Variant No. 101 of mature Human GLA
B5: 102 (protein)
chain: B1 chain with L96K, L316E
modifications: Synthetic Polypeptide sequence of Variant No. 102 of mature Human GLA
B6: 92 (protein)
chain: B1 chain with L96R
modifications: Synthetic Polypeptide sequence of Variant No. 92 of mature Human GLA
B7: 104 (protein)
chain: B1 chain with L96K, L386V
modifications: Synthetic Polypeptide sequence of Variant No. 104 of mature Human GLA
B8: 100 (protein)
chain: B1 chain with L23T, L96K
modifications: Synthetic Polypeptide sequence of Variant No. 100 of mature Human GLA
B9: 103 (protein)
chain: B1 chain with L96K, L384F
modifications: Synthetic Polypeptide sequence of Variant No. 103 of mature Human GLA
B10: 95 (protein)
chain: B1 chain with L96K, L158A
modifications: Synthetic Polypeptide sequence of Variant No. 95 of mature Human GLA
B11: 98 (protein)
chain: B1 chain with L96K, L158R
modifications: Synthetic Polypeptide sequence of Variant No. 98 of mature Human GLA
B12: 33 (protein)
chain: B1 chain with L96K, A199H, E367S
modifications: Synthetic Polypeptide sequence of Variant No. 33 of mature Human GLA
B13: 97 (protein)
chain: B1 chain with L96K, L158M
modifications: Synthetic Polypeptide sequence of Variant No. 97 of mature Human GLA
B14: 94 (protein)
chain: B1 chain with L96K, L100F
modifications: Synthetic Polypeptide sequence of Variant No. 94 of mature Human GLA
B15: 99 (protein)
chain: B1 chain with L23M, L96K
modifications: Synthetic Polypeptide sequence of Variant No. 99 of mature Human GLA
B16: 96 (protein)
chain: B1 chain with L96K, L158I
modifications: Synthetic Polypeptide sequence of Variant No. 96 of mature Human GLA

Experiment: HTP-analysis of yeast culture supernatants, no challenge (MUGal hydrolysis)
Format: biochemical
Conditions: activity of the variant/activity of WT GLA (SEQ ID NO: 5), yeast supernatant
Method in brief: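 Activity read as 4-methylumbelliferyl α-D-galactopyranoside hydrolysis: fluorescence (355/448 nm) after sodium carbonate stop, following 30-180 min at 37° C with 2 mM MUGal stock at pH 4.6–4.8. Enzyme source is unchallenged culture supernatant of INVSc1 yeast expressing GLA variants, grown 66-84 h at 30° C.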

Molecule | Relative Activity of GLA Variants After No Challenge (NC)
B1 | + (+ = 0.5 to 1.5 relative activity over WT GLA (SEQ ID NO: 5))
B2 | +++ (+++ = >2.5 relative activity over WT GLA (SEQ ID NO: 5))
B3 | ++ (++ = >1.5 to 2.5 relative activity over WT GLA (SEQ ID NO: 5))
B4 | +++ (+++ = >2.5 relative activity over WT GLA (SEQ ID NO: 5))
B5 | +++ (+++ = >2.5 relative activity over WT GLA (SEQ ID NO: 5))
B6 | + (+ = 0.5 to 1.5 relative activity over WT GLA (SEQ ID NO: 5))
B7 | ++ (++ = >1.5 to 2.5 relative activity over WT GLA (SEQ ID NO: 5))
B8 | + (+ = 0.5 to 1.5 relative activity over WT GLA (SEQ ID NO: 5))
B9 | ++ (++ = >1.5 to 2.5 relative activity over WT GLA (SEQ ID NO: 5))
B10 | + (+ = 0.5 to 1.5 relative activity over WT GLA (SEQ ID NO: 5))
B11 | + (+ = 0.5 to 1.5 relative activity over WT GLA (SEQ ID NO: 5))
B12 | + (+ = 0.5 to 1.5 relative activity over WT GLA (SEQ ID NO: 5))
B13 | + (+ = 0.5 to 1.5 relative activity over WT GLA (SEQ ID NO: 5))
B14 | + (+ = 0.5 to 1.5 relative activity over WT GLA (SEQ ID NO: 5))
B15 | + (+ = 0.5 to 1.5 relative activity over WT GLA (SEQ ID NO: 5))
B16 | + (+ = 0.5 to 1.5 relative activity over WT GLA (SEQ ID NO: 5))

Experiment: HTP-analysis of supernatants pretreated with acid (MUGal hydrolysis)
Format: biochemical
Conditions: challenge at pH 4.2; activity of the variant/activity of WT GLA (SEQ ID NO: 5); yeast supernatant
Method in brief: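 Yeast INVSc1 supernatant, GLA variants; acid challenge: McIlvaine pH 3.3-4.3, 37° C., 1-3 h. Assay: MUGal in McIlvaine pH 4.8 plus citrate pH 4.3, 37° C., 30-180 min, Na2CO3 stop, Ex 355/Em 448 nm.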

Molecule | Relative Activity of GLA Variants After Challenge at pH 4.2
B1 | + (+ = 0.5 to 1.5 relative activity over WT GLA (SEQ ID NO: 5))
B2 | ++ (++ = >1.5 to 2.5 relative activity over WT GLA (SEQ ID NO: 5))
B3 | +++ (+++ = >2.5 relative activity over WT GLA (SEQ ID NO: 5))
B4 | +++ (+++ = >2.5 relative activity over WT GLA (SEQ ID NO: 5))
B5 | +++ (+++ = >2.5 relative activity over WT GLA (SEQ ID NO: 5))
B6 | + (+ = 0.5 to 1.5 relative activity over WT GLA (SEQ ID NO: 5))
B7 | ++ (++ = >1.5 to 2.5 relative activity over WT GLA (SEQ ID NO: 5))
B8 | + (+ = 0.5 to 1.5 relative activity over WT GLA (SEQ ID NO: 5))
B9 | ++ (++ = >1.5 to 2.5 relative activity over WT GLA (SEQ ID NO: 5))
B10 | + (+ = 0.5 to 1.5 relative activity over WT GLA (SEQ ID NO: 5))
B11 | + (+ = 0.5 to 1.5 relative activity over WT GLA (SEQ ID NO: 5))
B12 | + (+ = 0.5 to 1.5 relative activity over WT GLA (SEQ ID NO: 5))
B13 | + (+ = 0.5 to 1.5 relative activity over WT GLA (SEQ ID NO: 5))
B14 | + (+ = 0.5 to 1.5 relative activity over WT GLA (SEQ ID NO: 5))
B15 | + (+ = 0.5 to 1.5 relative activity over WT GLA (SEQ ID NO: 5))
B16 | + (+ = 0.5 to 1.5 relative activity over WT GLA (SEQ ID NO: 5))

Experiment: HTP-analysis of supernatants pretreated with base (MUGal hydrolysis)
Format: biochemical
Conditions: challenge at pH 7.1; activity of the variant/activity of WT GLA (SEQ ID NO: 5); yeast supernatant
Method in brief: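 GLA variants secreted from yeast INVSc1; culture supernatants pre-incubated with McIlvaine buffer pH 7.0–8.2 or 200 mM bicarbonate pH 9.1–9.7 at 37° C. for 1–18 h. Residual activity: MUGal (4 mM stock) hydrolysis at pH 4.3–4.8, 37° C., 30–180 min, carbonate quench; fluorescence Ex 355/Em 448 nm.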

Molecule | Relative Activity of GLA Variants After Challenge at pH 7.1
B1 | ++ (++ = >1.5 to 2.5 relative activity over WT GLA (SEQ ID NO: 5))
B2 | ++ (++ = >1.5 to 2.5 relative activity over WT GLA (SEQ ID NO: 5))
B3 | + (+ = 0.5 to 1.5 relative activity over WT GLA (SEQ ID NO: 5))
B4 | +++ (+++ = >2.5 relative activity over WT GLA (SEQ ID NO: 5))
B5 | +++ (+++ = >2.5 relative activity over WT GLA (SEQ ID NO: 5))
B6 | + (+ = 0.5 to 1.5 relative activity over WT GLA (SEQ ID NO: 5))
B7 | ++ (++ = >1.5 to 2.5 relative activity over WT GLA (SEQ ID NO: 5))
B8 | + (+ = 0.5 to 1.5 relative activity over WT GLA (SEQ ID NO: 5))
B9 | ++ (++ = >1.5 to 2.5 relative activity over WT GLA (SEQ ID NO: 5))
B10 | + (+ = 0.5 to 1.5 relative activity over WT GLA (SEQ ID NO: 5))
B11 | + (+ = 0.5 to 1.5 relative activity over WT GLA (SEQ ID NO: 5))
B12 | + (+ = 0.5 to 1.5 relative activity over WT GLA (SEQ ID NO: 5))
B13 | + (+ = 0.5 to 1.5 relative activity over WT GLA (SEQ ID NO: 5))
B14 | + (+ = 0.5 to 1.5 relative activity over WT GLA (SEQ ID NO: 5))
B15 | + (+ = 0.5 to 1.5 relative activity over WT GLA (SEQ ID NO: 5))
B16 | + (+ = 0.5 to 1.5 relative activity over WT GLA (SEQ ID NO: 5))
